Experimental data reported in article PMC9972007.
Several values for one entry are separate records, joined by “and”; a condition that tells them apart may be missing. Equal values may be shown once.

Target: Optineurin (OPTN) (Homo sapiens, UniProt Q96CV9 1-577)
Assay: tryptophan fluorescence quenching titration

Chain of Optineurin (OPTN) (Q96CV9 whole entry): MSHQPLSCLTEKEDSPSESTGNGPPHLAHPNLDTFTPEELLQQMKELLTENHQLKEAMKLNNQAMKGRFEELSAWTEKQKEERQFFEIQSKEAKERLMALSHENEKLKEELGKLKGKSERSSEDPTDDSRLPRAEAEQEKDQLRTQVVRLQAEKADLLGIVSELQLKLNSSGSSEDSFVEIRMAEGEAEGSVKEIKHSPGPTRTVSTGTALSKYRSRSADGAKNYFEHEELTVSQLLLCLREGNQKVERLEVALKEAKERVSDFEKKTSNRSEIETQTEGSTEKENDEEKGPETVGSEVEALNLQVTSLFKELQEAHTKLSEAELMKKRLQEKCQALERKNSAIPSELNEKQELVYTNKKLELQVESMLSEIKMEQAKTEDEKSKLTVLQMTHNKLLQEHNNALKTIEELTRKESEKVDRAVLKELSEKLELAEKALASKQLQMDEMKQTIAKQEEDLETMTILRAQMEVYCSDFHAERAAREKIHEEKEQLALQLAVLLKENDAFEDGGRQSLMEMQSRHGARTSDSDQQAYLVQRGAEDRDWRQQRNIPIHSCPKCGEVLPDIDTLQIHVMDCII

B1: UG-repeat RNA 24-mer (ssRNA)
RNA: UGUGUGUGUGUGUGUGUGUGUGUG
  Kd: 4.61 µM and 4.49 µM
